The target of assay [1] is T1, recombinant mouse LEPR extracellular domain expressed with a C-terminal myc-myc-hexahistidine tag (mouse, UniProt P48356 22-839).
T1 construct: Monomeric construct; also called mLEPR.MMH; mLEPR-MMH
As to the kind of experiment: SPR, captured mAb, 37 C. On the procedure:
(§1) Equilibrium dissociation constants (KD values) for antigen binding to purified anti-LEPR monoclonal antibodies of the invention were determined using a real-time surface plasmon resonance biosensor using a Biacore 4000 instrument. All binding studies were performed in running buffer containing 10 mM HEPES, 150 mM NaCl, 3 mM EDTA, and 0.05% v/v Surfactant Tween-20, pH 7.4 (HBS-ET running buffer) at 25° C. and 37° C. The Biacore sensor surface was first derivatized by amine coupling with a monoclonal mouse anti-human Fc antibody (GE, #BR-1008-39) to the capture anti-LEPR monoclonal antibodies. […] The dissociation of monoclonal antibody bound LEPR reagent was monitored for 10 minutes in HBS-ET running buffer. Kinetic association (kₐ) and dissociation (kd) rate constants were determined by fitting the real-time binding sensorgrams to a 1:1 binding model with mass transport limitation using Scrubber 2.0c curve-fitting software. Binding dissociation equilibrium constants (KD) and dissociative half-lives (t½) were calculated from the kinetic rate constants as: […]
(In general: Surface plasmon resonance follows binding to a sensor surface in real time, without labels.)

Assay [2] concerns the target T2, recombinant rat LEPR extracellular domain expressed with a C-terminal myc-myc-hexahistidine tag (rat, UniProt Q62959 22-839).
T2 construct: Monomeric construct; also called rLEPR.MMH; rLEPR-MMH
As to the kind of experiment: SPR, captured mAb, 25 C. As to the method:
as §1

T1 sequence (P48356 other isoform, or with tags, fused parts or gaps): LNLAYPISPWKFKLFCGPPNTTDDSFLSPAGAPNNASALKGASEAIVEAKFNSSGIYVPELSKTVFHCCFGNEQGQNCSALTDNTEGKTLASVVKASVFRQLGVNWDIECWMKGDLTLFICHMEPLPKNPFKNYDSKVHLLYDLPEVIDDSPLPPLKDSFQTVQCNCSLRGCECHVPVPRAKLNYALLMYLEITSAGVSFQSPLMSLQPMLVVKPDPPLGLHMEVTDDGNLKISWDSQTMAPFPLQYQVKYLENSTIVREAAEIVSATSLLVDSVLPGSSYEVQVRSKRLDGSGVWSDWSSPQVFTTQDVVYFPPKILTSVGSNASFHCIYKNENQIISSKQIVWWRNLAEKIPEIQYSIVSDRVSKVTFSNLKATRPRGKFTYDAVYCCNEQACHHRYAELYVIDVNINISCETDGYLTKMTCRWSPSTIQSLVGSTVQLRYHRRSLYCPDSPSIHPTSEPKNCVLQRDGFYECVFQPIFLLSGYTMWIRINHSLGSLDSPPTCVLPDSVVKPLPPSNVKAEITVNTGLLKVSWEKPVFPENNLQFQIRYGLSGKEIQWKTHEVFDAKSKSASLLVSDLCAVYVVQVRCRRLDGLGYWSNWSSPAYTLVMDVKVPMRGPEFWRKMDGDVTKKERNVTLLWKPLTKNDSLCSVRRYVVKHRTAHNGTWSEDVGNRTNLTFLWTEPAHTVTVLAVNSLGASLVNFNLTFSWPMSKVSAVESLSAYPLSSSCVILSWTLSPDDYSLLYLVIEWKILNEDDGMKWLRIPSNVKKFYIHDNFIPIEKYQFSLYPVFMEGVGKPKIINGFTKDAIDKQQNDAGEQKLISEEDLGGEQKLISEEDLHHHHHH
T2 sequence (Q62959 other isoform, or with tags, fused parts or gaps): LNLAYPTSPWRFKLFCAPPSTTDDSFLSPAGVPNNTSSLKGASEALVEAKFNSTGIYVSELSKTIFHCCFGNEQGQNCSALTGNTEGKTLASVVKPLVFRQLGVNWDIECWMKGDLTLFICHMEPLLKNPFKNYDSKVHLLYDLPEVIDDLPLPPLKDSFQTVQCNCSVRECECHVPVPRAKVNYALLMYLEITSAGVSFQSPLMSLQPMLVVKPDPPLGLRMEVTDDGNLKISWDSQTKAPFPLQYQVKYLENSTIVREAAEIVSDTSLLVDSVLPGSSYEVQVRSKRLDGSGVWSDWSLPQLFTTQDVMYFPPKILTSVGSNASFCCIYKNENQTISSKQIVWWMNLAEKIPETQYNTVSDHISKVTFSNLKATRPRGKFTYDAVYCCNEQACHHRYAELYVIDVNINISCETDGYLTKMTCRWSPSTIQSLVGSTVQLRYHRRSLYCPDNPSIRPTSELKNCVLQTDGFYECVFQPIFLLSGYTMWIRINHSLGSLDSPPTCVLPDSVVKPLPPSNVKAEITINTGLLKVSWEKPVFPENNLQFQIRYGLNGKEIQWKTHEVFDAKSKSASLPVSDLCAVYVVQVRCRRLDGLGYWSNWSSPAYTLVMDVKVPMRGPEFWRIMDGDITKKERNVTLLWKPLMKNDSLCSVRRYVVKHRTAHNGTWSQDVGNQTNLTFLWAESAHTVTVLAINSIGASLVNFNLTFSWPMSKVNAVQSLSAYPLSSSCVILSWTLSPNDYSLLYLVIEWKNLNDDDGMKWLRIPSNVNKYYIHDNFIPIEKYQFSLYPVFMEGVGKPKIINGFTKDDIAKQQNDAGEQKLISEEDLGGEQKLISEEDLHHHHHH

B1: H4H18462P2 (antibody, human IgG4, V domains shown)
VH: EVQLVESGGDLVQPGRSLRLSCAASGFTFSSFAMSWVRQAPGRGLEWVSSLSDSGDNTYYADSVKGRFTISRDNSKNTLYLQMNNLRAEDTAVYYCAKDLFSGWLFHGFDVWGQGTMVTVSS
VL: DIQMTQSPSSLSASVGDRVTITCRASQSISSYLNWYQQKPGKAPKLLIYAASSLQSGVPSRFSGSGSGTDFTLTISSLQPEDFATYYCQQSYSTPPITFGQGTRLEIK
notes: Fully human variable regions; H4H prefix = human IgG4 Fc
For B1, the “100 nM mLEPR-MMH Bound (RU)” value in assay [1] was found to be 3 RU.

B2: H4H17322P2 (antibody, human IgG4, V domains shown)
VH: QLQLQESGPGLVKPSETLSLTCTVSGASISSSRFYGGWIRQPPGKGLEWIGDIYYSGNTYYNPSLQSRVTISVDTSKNQFSLKLSSVTAADTAVYYCARHLMITFGGLIVEGFDIWGQGTMVTVSS
VL: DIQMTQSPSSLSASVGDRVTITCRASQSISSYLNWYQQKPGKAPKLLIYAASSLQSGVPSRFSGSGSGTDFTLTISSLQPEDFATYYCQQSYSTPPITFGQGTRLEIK
notes: as for B1
For B2, the “100 nM rLEPR-MMH Bound (RU)” value in assay [2] amounted to 10 RU.

Source of the values: patent publication US20230235068A1 (published 2023).
